Test results from US20260275317A1, “CHIMERIC ENDOLYSINS WITH ACTIVITY AGAINST STREPTOCOCCI AND STAPHYLOCOCCI” (UNIVERSITEIT GENT, priority 2023, published 2026).
“And” between values parts separate entries of the source, which are not always exact repeats. Equal entries are not always repeated.

Legend:
[1] = test system: stationary phase S. uberis; assay: Turbidity reduction assay (TRA), S. uberis; assay type: cell-based, Streptococcus uberis
Experimental: (§1) Concerning the time killing assay, an overnight bacterial culture was diluted 1:10 for S. uberis, S. agalactiae-& dysgalactiae or 1:100 for S. aureus in PBS or UHT-pasteurized whole cow's milk. A volume of 10 μL thereof was combined with an equal amount of chimeric endolysin in PBS (or only PBS as negative control) in triplicate and incubated in a covered 96-well microtiter plate at 37° C. for 2 h. The dose was low (i.e. 0.25 μM), but this was chosen to differentiate between less and better performing variants, consequently allowing a ranking. Finally, these fractions were serially diluted 1:10 in PBS. 5 μL of each fraction was spotted on TSA or BHI-agar and incubated overnight at 37° C. The following day, colony forming units (CFU) were counted and converted to CFU/mL to calculate logarithmic reductions in comparison with the negative control. The relative scores were calculated by dividing the observed logarithmic reduction for each endolysin by the maximal reduction observed for that specific condition and strain. Next, this value was divided by the number of conditions and strains tested (i.e., 8=4 bacterial strains×2 conditions (PBS/UHT-milk)). As such, the best performing candidate in each individual assay received a score of 0.125 (=(1/1)/8). […] Turbidity reduction assays were performed by combining 100 μL of overnight grown bacterial cells with an equal volume of purified enzyme at the desired concentration. Bacterial cells were washed with PBS and resuspended in a 1:1 ratio with enzyme to an OD600 of approximately 1.0. Next, the OD600 was measured using a Tecan infinite 200 PRO plate reader (Tecan, Switzerland) every 15 seconds at 37° C., shaking the 96-well plate between each measurement.
(§2) Time killing and turbidity reduction assays were performed as previously described in 1.3.1.

[2] = test system: stationary phase S. uberis; assay: Time killing assay (TKA), S. uberis; assay type: cell-based, Streptococcus uberis; conditions: for ΔLog10 (CFU/mL): 1 h
Experimental: as §1, with “A volume of 10 μL thereof was combined with an equal amount of chimeric endolysin in PBS (or only PBS as negative control) in triplicate and incubated in a covered 96-well microtiter plate at 37° C. for 2 h. The dose was low (i.e. 0.25 μM), but this was chosen to differentiate between less and better performing variants, consequently allowing a ranking.” left out
as §2
Time killing assays were performed as previously described in 1.3.1.

S. agalactiae = assay: Turbidity reduction assay (TRA), S. agalactiae; assay type: cell-based, Streptococcus agalactiae
Experimental: as §1, §2

[3] = test system: S. uberis in mastitic raw cow's milk; assay: Challenge of mastitic raw cow's milk; assay type: cell-based, Streptococcus uberis; conditions: milk of 4 cows, 8 h; 0.5 μM NC5, 50 μg/mL cloxacillin or both
Experimental: Raw cow's milk from S. uberis infected dairy cows was supplied by the milk control center of Flanders (MCC Vlaanderen). Upon arrival, the milk was serially diluted and plated on BHI agar to determine the bacterial load. Only milk with >10^5 […] CFU/mL S. uberis was included as a selection criterium. If needed, the raw milk was incubated during 8 h at 37° C. to artificially increase the initial bacterial load. […] Upon incubation at 37° C., every 2 h, 20 μL was transferred from each well to 180 μL dPBS, serially diluted and plated on BHI agar. Plates were incubated overnight and CFU/mL were calculated the next day. Undiluted, mastitic milk was always pipetted with ClipTip Pipette Tips (Westburg, The Netherlands) due to high viscosity. Mastitis isolates were confirmed as S. uberis by MALDI-TOF MS biotyping.

[4] = Clinical S. uberis 1 (Unknown ST and GCC), 0.3 μM
[5] = Clinical S. uberis 2 (Unknown ST, GCC 5), 0.3 μM
[6] = Clinical S. uberis 3 (Unknown ST, GCC 5), 0.3 μM
[7] = Clinical S. uberis 4 (ST 815, GCC 143), 0.3 μM
[8] = Clinical S. uberis 5 (ST 944, GCC 5), 0.3 μM
[9] = Subclinical S. uberis 1 (ST 808, GCC 143), 0.3 μM
[10] = Subclinical S. uberis 2 (Unknown ST and GCC), 0.3 μM
[11] = Subclinical S. uberis 3 (Unknown ST, GCC 5), 0.3 μM
[12] = Subclinical S. uberis 4 (Unknown ST and GCC), 0.3 μM

B1: NC5: chimeric endolysin SEQ ID NO: 17; HIV-1 TAT + PlySs2 CHAP + Ply1081 CW_7 + PlySs9 amidase_3 (protein)
chain: MYGRKKRRQRRRGATTVNEALNNVRAQVGSGVSVGNGECYALASWYERMISPDATVGLGAGVGWVSGAIGDTISAKNIGSSYNWQANGWTVSTSGPFKAGQIVTLGATPGNPYGHVVIVEAVDGDRLTILEQNYGGKRYPVRNYYSAASYRQQVVHYITPPGTVAQSAPNLAGAGIDQLVQETLAGKYGNGEQRKAALGSQYQAVMAVINGKATAPKKTVDQLAQEVIQGKHGNGEDRKKSLGPDYDAVQKRVTEILKGSPSGNIPKTPSDAPKSEVVNSSTEPKTEETGANGKATDTKITKGSGKHLVICGHGQGRTGYDPGAVNAKLGITEAGKVRELSKLMSKYSGQQIDFITEQNVYDYRSITSIGKGYDSITELHFNAFNGSAKGTEVLIQSSLEADKEDMAILSLLSRYFQNRGIKKVDWLYNANQAASRGYTYRLVEIAFIDNEQDMAIFENKKEDIAKGLVSAITGVEVKTIVPSPPSSTVGSSGTPSKSIYLVGDSLRVLPHATHYQTGQKIANWVKGRTYKILQVKNVHQSNSKRAYLLDGIKSWVLEQDVEGTTKGHSKYHHHHHH
lysis in comparative TRA versus NC3 and NC8 ([1]; 0.5 μM, S. uberis 0140J): lysed the bacterial cells faster and resulted in a higher reduction of the OD600 | lysis speed (ΔOD600/min)/μM [1, 4]: 0.06 (ΔOD600/min)/μM | ΔOD600 ([1]; Clinical S. uberis 1 (Unknown ST and GCC), 1 h, 0.3 μM): 0.42 | lysis speed (ΔOD600/min)/μM [1, 5]: 0.11 (ΔOD600/min)/μM | ΔOD600 ([1]; Clinical S. uberis 2 (Unknown ST, GCC 5), 1 h, 0.3 μM): 0.38 | lysis speed (ΔOD600/min)/μM [1, 6]: 0.44 (ΔOD600/min)/μM | ΔOD600 ([1]; Clinical S. uberis 3 (Unknown ST, GCC 5), 1 h, 0.3 μM): 0.62 | lysis speed (ΔOD600/min)/μM [1, 7]: 0.05 (ΔOD600/min)/μM | ΔOD600 ([1]; Clinical S. uberis 4 (ST 815, GCC 143), 1 h, 0.3 μM): 0.63 | lysis speed (ΔOD600/min)/μM [1, 8]: 0.21 (ΔOD600/min)/μM | ΔOD600 ([1]; Clinical S. uberis 5 (ST 944, GCC 5), 1 h, 0.3 μM): 0.59 | ΔOD600 ([1]; S. uberis 0140J, 0.3 μM): 0.57±0.00 | lysis speed (ΔOD600/min)/μM, NC5 pairwise versus NC2 ([1]; S. uberis (sub)clinical isolates, 0.3 μM): significantly (p <0.01) faster | lysis speed (ΔOD600/min)/μM [1, 9]: 0.43 (ΔOD600/min)/μM | ΔOD600 ([1]; Subclinical S. uberis 1 (ST 808, GCC 143), 1 h, 0.3 μM): 0.66 | lysis speed (ΔOD600/min)/μM [1, 10]: 0.11 (ΔOD600/min)/μM | ΔOD600 ([1]; Subclinical S. uberis 2 (Unknown ST and GCC), 1 h, 0.3 μM): 0.65 | lysis speed (ΔOD600/min)/μM [1, 11]: 0.39 (ΔOD600/min)/μM | ΔOD600 ([1]; Subclinical S. uberis 3 (Unknown ST, GCC 5), 1 h, 0.3 μM): 0.53 | lysis speed (ΔOD600/min)/μM [1, 12]: 0.28 (ΔOD600/min)/μM | ΔOD600 ([1]; Subclinical S. uberis 4 (Unknown ST and GCC), 1 h, 0.3 μM): 0.42 | ΔLog10 (CFU/mL) [2, 4]: 0.03 Log10 (CFU/mL) | ΔLog10 (CFU/mL) [2, 5]: 4.05±0.07 Log10 (CFU/mL) and 4.05 Log10 (CFU/mL) | ΔLog10 (CFU/mL) [2, 6]: 1.82 Log10 (CFU/mL) | ΔLog10 (CFU/mL) [2, 7]: 0.00 Log10 (CFU/mL) | ΔLog10 (CFU/mL) [2, 8]: 0.71 Log10 (CFU/mL) | Δ log10 ([2]; S. uberis 0140J, 0.3 μM): 1.16±0.06 log10 | ΔLog10 (CFU/mL) [2, 9]: 3.02±0.37 Log10 (CFU/mL) and 3.02 Log10 (CFU/mL) | ΔLog10 (CFU/mL) [2, 10]: 1.13 Log10 (CFU/mL) | ΔLog10 (CFU/mL) [2, 11]: 1.24 Log10 (CFU/mL) | ΔLog10 (CFU/mL) [2, 12]: 2.48 Log10 (CFU/mL) | log10 reduction ([2]; mastitis-derived S. uberis GCC ST-5, 0.3 μM, versus PBS): 1.17±0.06 log10 | lysis speed (ΔOD600/min)/μM (S. agalactiae; S. agalactiae 1, 0.3 μM): 0.15 (ΔOD600/min)/μM | ΔOD600 (S. agalactiae; S. agalactiae 1, 1 h, 0.3 μM): 0.42 | lysis speed (ΔOD600/min)/μM (S. agalactiae; S. agalactiae 2, 0.3 μM): 0.08 (ΔOD600/min)/μM | ΔOD600 (S. agalactiae; S. agalactiae 2, 1 h, 0.3 μM): 0.39 | lysis speed (ΔOD600/min)/μM (S. agalactiae; S. agalactiae 3, 0.3 μM): 0.12 (ΔOD600/min)/μM | ΔOD600 (S. agalactiae; S. agalactiae 3, 1 h, 0.3 μM): 0.41 | ΔOD600, reductions up to (S. agalactiae; three clinical S. agalactiae isolates, 0.3 μM): up to 0.39±0.02 | log10 reduction of S. uberis versus PBS control [3]: caused a log10 reduction in all mastitic milk samples after 8 h
